Measured values: the supplement of paper PMC9112550, “Optimization of the antimicrobial peptide Bac7 by deep mutational scanning” (BMC Biology, 2022)

Test system: Escherichia coli TOP10
Assay: shrunken log2 fold change of peptide-encoding DNA abundance (4.5 h post-induction vs induction); higher = less antimicrobial activity (less host growth inhibition)
Settings: time post-induction: 4.5 h; library: site-saturation at positions 5, 18, 19, 20
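Also: peptides expressed intracellularly from a pBAD plasmid library in pooled LB shake-flask culture, induced with 0.3% L-arabinose, DNA abundance read by NGS, three biological replicates, DESeq2 with apeglm shrinkage.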

Sequence	shrunken log2 fold change
RRIRGRPPRLPRPRPRPGMYPRP	0.191
RRIRGRPPRLPRPRPRPGNLPRP	-0.639
RRIRGRPPRLPRPRPRPGPSPRP	1.05
RRIRGRPPRLPRPRPRPGTMPRP	0.0523
RRIRGRPPRLPRPRPRPGVSPRP	0.889
RRIRGRPPRLPRPRPRPGWDPRP	1.09
RRIRGRPPRLPRPRPRPGWLPRP	1.17
RRIRGRPPRLPRPRPRPGWRPRP	1.09
RRIRGRPPRLPRPRPRPGYRPRP	0.189
RRIRGRPPRLPRPRPRPGYVPRP	-0.00987
RRIRGRPPRLPRPRPRPHAYPRP	2.11
RRIRGRPPRLPRPRPRPHCQPRP	-0.058
RRIRGRPPRLPRPRPRPHDKPRP	0.475
RRIRGRPPRLPRPRPRPHDLPRP	-0.00843
RRIRGRPPRLPRPRPRPHDTPRP	0.358
RRIRGRPPRLPRPRPRPHEMPRP	0.143
RRIRGRPPRLPRPRPRPHFEPRP	0.328
RRIRGRPPRLPRPRPRPHFLPRP	1.03
RRIRGRPPRLPRPRPRPHGQPRP	0.578
RRIRGRPPRLPRPRPRPHHQPRP	-0.185
RRIRGRPPRLPRPRPRPHHWPRP	0.431
RRIRGRPPRLPRPRPRPHKSPRP	0.277
RRIRGRPPRLPRPRPRPHKVPRP	0.184
RRIRGRPPRLPRPRPRPHLAPRP	0.601
RRIRGRPPRLPRPRPRPHPNPRP	0.547

Sequence	shrunken log2 fold change
RRIRGRPPRLPRPRPRPHPPPRP	0.759
RRIRGRPPRLPRPRPRPHPQPRP	0.546
RRIRGRPPRLPRPRPRPHPTPRP	0.973
RRIRGRPPRLPRPRPRPHRDPRP	0.0592
RRIRGRPPRLPRPRPRPHSHPRP	0.303
RRIRGRPPRLPRPRPRPHSKPRP	0.205
RRIRGRPPRLPRPRPRPHVDPRP	0.0583
RRIRGRPPRLPRPRPRPHVPPRP	0.103
RRIRGRPPRLPRPRPRPHWAPRP	0.362
RRIRGRPPRLPRPRPRPHYIPRP	-0.0882
RRIRGRPPRLPRPRPRPHYRPRP	0.231
RRIRGRPPRLPRPRPRPIAKPRP	0.245
RRIRGRPPRLPRPRPRPIAPPRP	1.29
RRIRGRPPRLPRPRPRPIARPRP	0.792
RRIRGRPPRLPRPRPRPIAVPRP	0.892
RRIRGRPPRLPRPRPRPICFPRP	0.535
RRIRGRPPRLPRPRPRPICKPRP	0.616
RRIRGRPPRLPRPRPRPICLPRP	0.277
RRIRGRPPRLPRPRPRPIDIPRP	-0.0347
RRIRGRPPRLPRPRPRPIDKPRP	1.2
RRIRGRPPRLPRPRPRPIFSPRP	0.312
RRIRGRPPRLPRPRPRPIFWPRP	0.531
RRIRGRPPRLPRPRPRPIHCPRP	-0.0922
RRIRGRPPRLPRPRPRPIHDPRP	-0.126
RRIRGRPPRLPRPRPRPIHFPRP	-0.252

Sequence	shrunken log2 fold change
RRIRGRPPRLPRPRPRPIKHPRP	0.171
RRIRGRPPRLPRPRPRPIKKPRP	0.00565
RRIRGRPPRLPRPRPRPINNPRP	-0.0606
RRIRGRPPRLPRPRPRPIQFPRP	-0.146
RRIRGRPPRLPRPRPRPIQIPRP	-0.0799
RRIRGRPPRLPRPRPRPISMPRP	-0.0173
RRIRGRPPRLPRPRPRPITIPRP	0.0958
RRIRGRPPRLPRPRPRPIVAPRP	0.727
RRIRGRPPRLPRPRPRPIVDPRP	0.0357
RRIRGRPPRLPRPRPRPIVIPRP	-0.227
RRIRGRPPRLPRPRPRPIVQPRP	0.606
RRIRGRPPRLPRPRPRPIVVPRP	0.962
RRIRGRPPRLPRPRPRPIWKPRP	0.155
RRIRGRPPRLPRPRPRPIYLPRP	0.0531
RRIRGRPPRLPRPRPRPKALPRP	0.0797
RRIRGRPPRLPRPRPRPKCAPRP	1.61
RRIRGRPPRLPRPRPRPKCFPRP	0.852
RRIRGRPPRLPRPRPRPKCTPRP	0.978
RRIRGRPPRLPRPRPRPKCWPRP	1.09
RRIRGRPPRLPRPRPRPKECPRP	0.0235
RRIRGRPPRLPRPRPRPKEDPRP	0.796
RRIRGRPPRLPRPRPRPKEGPRP	1.62
RRIRGRPPRLPRPRPRPKENPRP	0.791
RRIRGRPPRLPRPRPRPKEVPRP	0.00437
RRIRGRPPRLPRPRPRPKEWPRP	-0.00523
